From the DeepSol protein solubility set

Test: soluble on expression in E. coli; label from the status in PepcDB or PDB records

Sequence	soluble on expression in E. coli
MDMNEEYGLTPYETREILFYKTDNGEVRVEILLYQENLWLTQAKMAELFEVQKAAISKHLKNIFTSGELQEEAVVSKMETTAADGKRYNTSYYNLDAIIAVGYRVNSKKATMFRIWANRVLKEFIIKGYVMDDARLREPENLFGKDYFEEQLERIRDIRSSERRFYQKITDIYSQCSADYDVNSPVTKEFFATVQNKLHYAVTHHTAAEIVYGRADSTKPNMGLTTWKNAPQGRIRKSDVSIAKNYLNEEEMINLNEIVTMYLDYAERQARRGNIMYMQDWVNRLDAFLQFNEEDILHDKGKVTAAIAKAFAESEFEKFRVLQDRTYQSDFDRLVANIEENSKQTK	not soluble
MAHHHHHHMTSVEAENQPVEDPETFVVMEENGAPRDPQVAVSALDEAAEEGAVSGGEREPAAAGDDLSNPHVFKVAAREVDEGYMSVIRGLSAFGRADEEVCRNAVDICKDIIAMEQSLFSEVPSYVTNYASMQRAKTVVLNKAVRPHWTIPTPEGPPRTWEEQRAYVDPGVPLMLPYSAERFKKEHPERALVEGTYHNLFYGDGTQVVFTASADNKRKQIEEEKRKHPHPSYHGPYVFEPQQKKPMRVASDFVPSCAEPDRLRVDLRKKPVTKAKAEKSQKKKVTTK	not soluble
MSLSNAVRITALHTRLARIPLPRPLKTSIHEIADVCCLLVSLETDAGVTGEGYGFCFNADRLGAIAQFTQSLAPLVVGRDPHDVEALWTDFLRGCNFYGQSGVSILAYNPIDIACWDIVGKLAGRPLYKLFGAHRERVPVYASAGLWLSSSRDELRDEARQFLAQGFKAMKMRLGSPDWKEDIARVEVVRDAIGEQVTLMADANQGLDLTRALRLGRELARFDLAWFEEPVPTWDDDSAAEIVRRLPMPIASGETEYTRYGIRRMARERAAGVFMPDLQRMGGYTEMLKAVRYLAAHDLPVAPHIFTEHSLHIVAAAGNATWAEHMPWFEPLFHERMEIGADGCIAAPDRPGTGFTFDWQRIDPYLISPRTAGGSEGHHHHHH	soluble
MAHHHHHHMACDDSTKRNAAAVNRLLQKTRAATAPNSQWLNSITRREDGTLSNELHLSNQQRLACEMGVFPKGHFGDVEIEEENPQRSCHALAQRRARHEWKTDEEAKRRLQIGRGEVCNKRELRAAARREAAILRYEMTLPRRRVVGHLSHLMPAQADASLAVPTEGAADALVEKGCGRWVLHNSYRQQLLHGEPVMTRIMRGEFYETKPPPQRKKKVWAAGKRHVRMTSEVNRLMNTGGWCR	not soluble
MGSDKIHHHHHHMDDFVQSKARKDIFRLKAYVPGKPIEEVKRELGLDSIIKLASNENPLGTSPLALAALQEGLNKIHLYPDANAYELKQELASFWQVPAEQIVVGNGSDELLLLLAQTFINPGDEVIHAEQTFSEYESTSTLMGAHSITIPLKEYKYDLKAILEAINTRTKIIYLCNPNNPTGTIVEQEEIELFMQQVPGEILVVFDEAYGEYVDNPAFGSGLQYLREGRNIVLLKTFSKIYGLAGLRIGYVITTPAIAAALDRVREPFNVNFAAQIAAQAALRDIDFVEKSRQLNLQGKDYLYQELARLGLDYVKTNTNFIFLDTGRDCQLVFRELLQRGVIIRTGDIFGYPTFIRLTIGTMEENRRFIKSLQEVLEVIPL	not soluble
MGHHHHHHSHMIKRSSECNPLLQEPIASAQFGATAGTECRKSVPCGWERVVKQRLFGKTAGRFDVYFISPQGLKFRSKSSLANYLHKNGETSLKPEDFDFTVLSKRGIKSRYKDCSMAALTSHLQNQSNNSNWNLRTRSKCKKDVFMP	soluble
MGSDKIHHHHHHMIQTPVIVTFANQKGGVGKTTLCVTFANYLVAKGVRVLVIDCDFQHSIMKCRKADIKKYGEEQLPYEVWSYEPNNKVEMTSLVEKLHNDPEIDVVLIDSPGSLKAEGLVPIFVNSDIIVVPFHYDLVTIPSTASFLLFLDRLRQAVGERMKAQLFIIPNLNDNRVGKRSELILWDNTRETFSNYGYVTGKIPRRADMERFSTIAALDMQYRYVSSVFDKIYFSIFDKTGPIREMELSGIQLTENLYPKSGKKKYQAETSTHIALDEAEDEEQENNSEHQHNQ	not soluble
MAHHHHHHMEAGARFPAAATPPASAGAAAVQGDAESEPDDERWSLSDGEPEAIPAKNGEPSDADVDAAMAAKGEAAELHGEGKQEEAIAKMGEALAYNPGNAMYWGMRALYHLEFNKPRAALHDANKALELNPQNVRALRVRGTVNRHLGHWEDSLKDLSAAQAIDYDDKTNETLKYVQSRATQRHKRQLARHHAEEEAAARRQEELRRQRQREAEEAAAAAEAQAAPGSMPGGLPRGFPGGMPGGMPGGMPGGMPPGMESVLQDPEIMVAMQDPEVAPKLAQMMQNPMAAMSMMNDPKVGPVMQKIMAKMMGGGGMPGGMGGMGGMGGFQGAGGMPSHRGAADGASGSTRRDDLD	not soluble
MIDTPDLETRAAPEDHHALRLWLRMLTCCNLIESEIRSRLRTEFDTTLPRFDLMAQLQRAPKGMKMGELSRHMMVTNGNITGITDQLEKEGLVVRTKVESDRRSSVLKLTPQGKRTFARMARAHESWVTGMLDDLPEASRHAMYKALGELKLQVVAHRALAQRDGAS	not soluble
MSLQVWTKLFAKSPFKPLIKHAEVVVETVETLEKALEAWAKGDYEKMKELAVEVDRLEDVADRIKMELRESITAKLLMPVQRSDVLEYLHMQDKIADAAEDTAKWLLVRDRGNVPEDIKDIILKMGKESIRAAKLVYEAIKQMDMVVESGFSENEIKKEYDLIRQIEEVENKIDGLDTKLMRLVLNANISWTEGIYLLNIGRTISNISDKAKDAAERIRIMMSKEGHHHHHH	soluble
MDWGRFVEEKVREIRETVGDSKAIIALSGGVDSSTAAVLAHKAIGDRLHAVFVNTGFLRKGEPEFVVKTFRDEFGMNLHYVDAQDRFFSALKGVTDPEEKRKIIGRVFIEVFEEVAKKIGAEYLIQGTIAPDWIESQGKIKSHHNVGGLPEKLNLKLIEPLRDLYKDEVRELAKFLGLPEKIYNRMPFPGPGLAVRVIGEVTPEKIRIVREANAIVEEEVERAGLRPWQAFAVLLGVKTVGVQGDIRAYKETIAVRIVESIDGMTANAMNVPWEVLQRIAFRITSEIPEVGRVLYDITNKPPATIEFE	soluble
MQRRLERFDAKLVQSGLDALLVTGQNNIYYLTDFWGTNATVFITKNRRLFLTDSRYTLIAKQSVHGFDIIESKDPLKDIVKFVEVDKLETIGFDNQVSFAYYQALQAIFEGYTLSPQTNFMEELRMIK	soluble
MGSDKIHHHHHHQTPSPLGEWQYSAGVPLDKLFNPNPQTWQISVGAAATLQPRYDGSNQYRPMAGPTFDARYRDLWFVSTGEGIGVNVLRGPNWRATLSAGYDLGRREADDRGHLTGIGNINPAAVIKLSADYVISHAFPLVLRADVRRSVGGANGWVADLAAYMPLPGSSETFYWFAGPTVTFADSRYMNSWFGVNDAQAARSGHPRYAPSAGVKSFGGGMTLVWFVTKHWFVTADGAIEQLVGSAARSPLTQRSTNAVVDVSINYQF	not soluble
KEEELVSDEEIGVKISLTGLKGGHSGVDIHLGRANANKLMFRFLKEAVGFYGARLAWVEGGSLRNAIPREAFAVITIQEEEAEAVWELVSDYQDLFRKEFSGIEENIKFEASRIECPRMIIPEEIQDCLINAVEACVNGPQSMLQDFPGTVESSSNLALITAKEGSISVRFLVRSSSESHKMWVASAIESVFSLAGARVEFDASYNGWQPNIQSHILEVMSKVFEEYYGQKPEVQVMHAGLECGIIQGVMPDMDMISVGPELQSPHSPDERIHIESVARTWEVLVKVLERV	not soluble
MGSDKIHHHHHHMSFSGFEQFIGLVANRYGKPGTPHSEEQHSDYEAGTVLLGSETWHIRTARVTPTKPGAFVAFWMRNEQGEICPFDSSEACAGLLIFVQDESNFGVFRFTREQLEQQGITRSTKRPGKRGFRVYPSWSGNLNAQAKKTQAIQTPSFELLQ	not soluble
MEDRNNIYFFYKHTKSMQEAVEPLKQLATSQGLNVVDDVQKANIIVSVGGNNAFLQATRKTNFRSDCLYVGVSTDREGFYPDFTINEIDKMFEAFENQNIEVKRLSTLEVTIDDEKPFYCLNECSIRSNVIKTFVLEVFIDDMHFETFRGDGMIVSTPTGSTAYNKSVRGAVVDPRLPSLQVSEIASLNNNTYRTLGTSFLLSGDRTLRLKVVQDGNDFPIIGADNEALSIRHAEDIKIRLSDKQVKVLKLKDNTFWHKVQRNFLLEHHHHHH	soluble
MSLNLWGDRVGYSKYKYEGLLNLCLEVFQRLGYTKEDSYTIGEVLLLADLFGIESHGVQRLTLYYKGIRNGSIKVKNHMNIVKESPVSVVIDGDGGMGQIISKKAMERAIDKAKKTGIGMAIVKNSNHFGIAGYYSRMAERKGLMGIAMTNTRAIVLPTYGREQMLGTNPISIAMPARPIPFLLDMATSVITRGKVEVYSKNNQKLNYGWAMDDEGRKTDNPDKVLKLANGNTGGLLPLGGDTEIFGGHKGYGISFAVEMFTSILSGGLTSDEIRGNNNTNGVCHAFAAIDYGLFDDKNAIEKRMSAYMQKIRNSKKAYGASRIYTHGEKELEAYEDRMENGIPINENTIVEIKEICDYVDIDINNYLKEGHHHHHH	soluble
MKTRTQQIEELQKEWTQPRWEGITRPYSAEDVVKLRGSVNPECTLAQLGAAKMWRLLHGESKKGYINSLGALTGGQALQQAKAGIEAVYLSGWQVAADANLAASMYPDQSLYPANSVPAVVERINNTFRRADQIQWSAGIEPGDPRYVDYFLPIVADAEAGFGGVLNAFELMKAMIEAGAAAVHFEDQLASVKKCGHMGGKVLVPTQEAIQKLVAARLCADVTGVPTLLVARTDADAADLITSDCDPYDSEFITGERTSEGFFRTHAGIEQAISRGLAYAPYADLVWCETSTPDLELARRFAQAIHAKYPGKLLAYNCSPSFNWQKNLDDKTIASFQQQLSDMGYKFQFITLAGIHSMWFNMFDLANAYAQGEGMKHYVEKVQQPEFAAAKDGYTFVSHQQEVGTGYFDKVTTIIQGGTSSVTALTGSTEESQF	soluble
MGSDKIHHHHHHMQLLKELCSIHAPSGNEEPLKDFILEYIRSNAGSWSYQPVIYADNDLQDCIVLVFGNPRTAVFAHMDSIGFTVSYNNHLHPIGSPSAKEGYRLVGKDSNGDIEGVLKIVDEEWMLETDRLIDRGTEVTFKPDFREEGDFILTPYLDDRLGVWTALELAKTLEHGIIAFTCWEEHGGGSVAYLARWIYETFHVKQSLICDITWVTEGVEAGKGVAISMRDRMIPRKKYVNRIIELARQTDIPFQLEVEGAGASDGRELQLSPYPWDWCFIGAPEKDAHTPNECVHKKDIESMVGLYKYLMEKL	not soluble
MKEEKLVTLAIHSYEKAQILKSLLETEGIEAYLHNVNQIQPVISAGVRVRIKETDLPRALSIIEDNKWDQEDPKKRAKNTEEYVLIPVDFSEYTMKICELGFNFAARRGLRVVLMHVYISPFFSTPLTVGDTAVFQLSNEVSLRKEYQRVQR	not soluble
MVNTNLEELRTQVDQLNIDLLELISKRANLVQEIGKIKGTQGSLRFDPLREREMLNTILAANEGPFEDSTVQKLFKEIFKAGLELQEEDHSKALLVSRKNKKEDTIVTVKGLPIGNGEPVFVFGPCSVESYEQVAAVAESIKAKGLKLIRGGAFKPRTSPYDFQGLGLEGLKILKRVSDEYGLGVISEIVTPADIEVALDYVDVIQIGARNMQNFELLKAAGRVDKPILLKRGLSATIEEFIGAAEYIMSQGNGKIILCERGIRTYEKATRNTLDISAVPILKKETHLPVMVDVTHSTGRKDLLLPCAKAALAIEADGVMAEVHPDPAVALSDSAQQMDIPEFEEFWNAILASNLVPHKIK	not soluble
VMVFISSSLNSFRSEKRYSRSLTIAEFKCKLELVVGSPASCMELELYGADDKFYSKLDQEDALLGSYPVDDGCSIHVIDHSG	soluble
MSNHHSSCSSRTGGAHRRCDCTEDLTENDKLWNDFEGCAQAVARLYSDSSWRNFRGAAEGTTQLYKTSTDSYRRGFEKGFSSGCTSIAKEILQAFRDPSKIDMNIVLEVLYRNMAIPREERLTVNTQNGISSDTLAAVELFQQALNQPQVPPLSTLSLLPPTTREQTTDTLDEFLASQVQRHRKRQRSPNNSTTSPTSQMKRQRRL	soluble
